In doi:10.1101/2025.09.30.679481:

Biological target: Bicaudal-D (D. melanogaster (endogenous in embryos)) (UniProt P16568)
Assay: co-IP

Chain of UniProt P16568 (P16568 whole entry): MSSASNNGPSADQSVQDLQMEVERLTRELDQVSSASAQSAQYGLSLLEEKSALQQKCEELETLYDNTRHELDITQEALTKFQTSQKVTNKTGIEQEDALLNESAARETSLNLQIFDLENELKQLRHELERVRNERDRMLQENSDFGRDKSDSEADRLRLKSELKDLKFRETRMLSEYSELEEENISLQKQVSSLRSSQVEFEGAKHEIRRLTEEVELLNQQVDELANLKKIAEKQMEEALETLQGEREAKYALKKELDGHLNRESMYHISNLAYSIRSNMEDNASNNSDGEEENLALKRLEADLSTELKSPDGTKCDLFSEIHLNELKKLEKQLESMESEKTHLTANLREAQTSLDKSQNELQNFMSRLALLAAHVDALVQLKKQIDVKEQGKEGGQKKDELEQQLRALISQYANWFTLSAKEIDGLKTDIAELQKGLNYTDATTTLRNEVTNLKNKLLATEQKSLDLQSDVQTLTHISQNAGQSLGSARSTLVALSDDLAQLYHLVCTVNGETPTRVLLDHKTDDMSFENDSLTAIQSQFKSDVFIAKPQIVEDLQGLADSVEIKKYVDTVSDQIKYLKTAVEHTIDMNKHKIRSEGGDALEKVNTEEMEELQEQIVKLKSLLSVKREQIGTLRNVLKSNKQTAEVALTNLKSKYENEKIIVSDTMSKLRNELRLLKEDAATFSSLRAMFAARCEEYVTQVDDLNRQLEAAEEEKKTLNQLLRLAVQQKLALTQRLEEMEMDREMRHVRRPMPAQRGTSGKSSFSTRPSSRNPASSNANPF

reduction of the co-precipitate by RNase: 84%
Substance: Imp (natural protein)
